Data reported in patent publication US8106168B2, “Metalloproteinase binding proteins” (Dyax Corp., priority 2005, dated 2012).

Target: MMP-14 (Homo sapiens, UniProt P50281)
Experiment: Selection and phage ELISA screening of anti-MMP-14 Fabs
Assay type: binding
Conditions: Fab from FAB310 phage display library
Protocol: Strategy I: A 100-fold excess of the FAB310 library (e.g., an amount of the library that should contain 100 copies of each library member) was depleted of streptavidin-binding antibodies by incubating the library with 200 μL of streptavidin beads for 1 hour at room temperature (RT) with rotation. 500 nM of biotinylated MMP-14 was coupled to streptavidin beads by incubation with 100 μL of streptavidin beads. The MMP-14 beads were then incubated with the streptavidin-depleted library for 1 hour at RT with rotation. The beads were then rinsed three times with 2% MTRIS/0.1% Tween, transferred to a fresh tube and washed an additional three times with 2% MTRIS/0.1% Tween, and transferred to a fresh tube and washed a final time with Round 1 TRIS buffer (50 mM TRIS; 50 mM CaCl2; 150 mM NaCl, pH 7.5).
MMP-14 binding antibodies were eluted from the beads by re-suspension in 1 mL 2% MTRIS containing 2.5 μM TIMP-2 and incubation for 1 hour at RT with rotation. The beads were then washed three times with 2% MTRIS/0.1% Tween, transferred to a fresh tube and washed three times with TRIS/0.1% Tween, and transferred to a fresh tube and washed a final time with TRIS. 1 mL output was used for infection of 9 mL TG1 bacteria (grown to OD600=0.5). The beads were further eluted by suspension in 1 mL 100 mM TEA for 10 minutes. The supernatant was neutralized with 500 μl TRIS/HCl pH 7.5. 1 mL of the second elution was used for infection of 9 mL TG1 bacteria (grown to OD600=0.5).
Two additional rounds of selection were carried out under the same conditions as the first round, except that the streptavidin beads were loaded with 100 nM biotinylated MMP-14 and the number of washes were doubled (6 times with 2% MTRIS/0.1% Tween, 6 times with TRIS/0.1% Tween and 2 times with TRIS), and Round 2/3 Tris buffer (50 mM TRIS; 5 mM CaCl2; 150 mM NaCl pH=7.5) was used for incubation and wash.
TIMP-2 was coupled to carboxylic beads, then complexed with a combination of biotinylated MMP-14 (500 nM each). The complexed beads were incubated with a 100 fold excess of FAB310 library that had been previously depleted by incubation with streptavidin beads and carboxylic beads. Elution/washing was carried out as for Strategy I.
Two additional rounds of selection were carried out, essentially as described for Strategy I, except that only 100 nM of each of MMP-14 were used in the bead complexes.
384-well plates were coated with biotinylated BSA (2 μg/ml in 50 mM TRIS; 5 mM CaCl2; 150 mM NaCl, pH 7.5), then washed 3 times with 50 mM TRIS; 5 mM CaCl2; 150 mM NaCl, pH 7.5; 0.1% Tween. Streptavidin was captured on the coated plates by incubation with 10 μg/mL streptavidin in 50 mM TRIS; 5 mM CaCl2; 150 mM NaCl pH 7.5; 0.5% Gelatin, followed by a wash with 50 mM TRIS; 5 mM CaCl2; 150 mM NaCl pH=7.5; 0.1% Tween. On the day the assay was to be performed, biotinylated MMP-14 (1 μg/ml) was captured in 50 mM TRIS; 5 mM CaCl2; 150 mM NaCl, pH 7.5.
95 clones were picked from each of Round 2 and Round 3 of each selection strategy, producing 12 masterplates. ELISA was run on the MiniTrak-5 deck according to SOP.

bind to human MMP-14 | Molecule
bind to human MMP-14 | M0041-A05: Fab that binds human MMP-14; DNA LV SEQ ID NO: 104, HV SEQ ID NO: 105 (antibody, V domains shown, Synthetically generated oligonucleotide) VL: QDIQMTQSPSSLSASVGDRVTITCRASQNINSYLNWYQQKPGKAPKLLIYAASSLQSGVPSRFSGSGSGTDFTLTISSLQPEDFVTYYCQQSYSTPKTFGQGTKVEIK VH: EVQLLESGGGLVQPGGSLRLSCAASGFTFSVYTMHWVRQAPGKGLEWVSVIYPSGGLTIYADSVKGRFTISRDNSKNTLYLQMNSLRAEDTAVYYCARNRGYYAPMDVWGQGTTVTVSS
bind to human MMP-14 | M0041-D03: Fab that binds human MMP-14; DNA LV SEQ ID NO: 112, HV SEQ ID NO: 113 (antibody, V domains shown, Synthetically generated oligonucleotide) VL: QDIQMTQSPSSLSASVGDRITVTCRASQSITNYLNWYQQKPGKAPKLLIYAASTLQSGVPSRFSGSGSGTDFTLTISRLEPEDFAVYYCQQYGSSPTFGQGTKVEVK VH: EVQLLESGGGLVQPGGSLRLSCAASGFTFSFYNMTWVRQAPGKGLEWVSSIYSSGGNTDYADSVKGRFTISRDNSKNTLYLQMNSLRAEDTAVYYCARDSLSHYYYGMDVWGQGTTVTVSS
bind to human MMP-14 | M0040-F03: Fab that binds human MMP-14; DNA LV SEQ ID NO: 96, HV SEQ ID NO: 97 (antibody, V domains shown, Synthetically generated oligonucleotide) VL: QDIQMTQSPLSLPVTPGEPASISCRSGQSLLHSNGYNYLNWYLQKPGQSPQLLIYLGSYRASGVPDRFSGSGSGTDFTLKISRVEAEDVGLYYCMQALQTPLTFGVGTKVEIK VH: EVQLLESGGGLVQPGGSLRLSCAASGFTFSMYVMSWVRQAPGKGLEWVSSISSSGGNTGYADSVKGRFTISRDNSKNTLYLQMNSLRAEDTAVYYCAKSSLYYDILAGPGFDYWGQGTLVTVSS
bind to human MMP-14 | M0041-B11: Fab that binds human MMP-14; DNA LV SEQ ID NO: 108, HV SEQ ID NO: 109 (antibody, V domains shown, Synthetically generated oligonucleotide) VL: QSVLTQDPAVSVALGQTVRITCQGDSLRSYSASWYQRKPGQAPLLVIYRKTNRPSGIPDRFSGSSSGNTASLTITGAQAEDESDYYCNSRDSSGNHLFGGGTKLTVL VH: EVQLLESGGGLVQPGGSLRLSCAASGFTFSQYSMHWVRQAPGKGLEWVSSIVPSGGMTAYADSVKGRFTISRDNSKNTLYLQMNSLRAEDTAVYYCAKISRGNDAFDIWGQGTMVTVSS
bind to human MMP-14 | M0040-G04: Fab that binds human MMP-14; DNA LV SEQ ID NO: 98, HV SEQ ID NO: 99 (antibody, V domains shown, Synthetically generated oligonucleotide) VL: QSVLTQPPSASGTPGQRVTISCSGSRTNIGSDYVYWYQQLPGTAPKLLIYRNNERPSGVPDRFSGFKSGTSASLAISGLRSEDEADYYCASWDDRLSGPVFGGGTKLTVL VH: EVQLLESGGGLVQPGGSLRLSCAASGFTFSQYHMLWVRQAPGKGLEWVSVIVSSGGFTFYADSVKGRFTISRDNSKNTLYLQMNSLRAEDTAVYYCARSYGGDAFDIWGQGTMVTVSS
bind to human MMP-14 | M0040-H09: Fab that binds human MMP-14; DNA LV SEQ ID NO: 102, HV SEQ ID NO: 103 (protein, Synthetically generated oligonucleotide) chain 1: QSELTQDPAVSVALGQAVIITCQGDSLRTYYPSWYQQKPGQAPTLLVYGKNKRPSGVPDRFSGSRSGDTASLIITGAQAEDDADYYCNSRDGSGHLFVFGPGTTVTVL chain 2: EVQLLESGGGLVQPGGSLRLSCAASGFTFSLYPMQWVRQAPGKGLEWVSYIRSSGGKTHYADSVKGRFTISRDNSKNTLYLQMNSLRAEDTAVYYCARVGMGSGWYTGYFDLWGRGTLVTVSS
bind to human MMP-14 | M0041-C11: Fab that binds human MMP-14; DNA LV SEQ ID NO: 110, HV SEQ ID NO: 111 (antibody, V domains shown, Synthetically generated oligonucleotide) VL: QDIQMTQSPSSLSASVGDRVTITCRASQRIGSYLNWYQQNSGKAPRLLIYGASNLESGVPSRFSGRGSGTDFTLTISSLQPEDFATYYCQQSNSTPHTFGQGTKVEIK VH: EVQLLESGGGLVQPGGSLRLSCAASGFTFSQYPMSWVRQAPGKGLEWVSSIGPGGWTWYADSVKGRFTISRDNSKNTLYLQMNSLRAEDTAVYYCARTATRIFGVVIMGRAFDIWGQGTMVTVSS
bind to human MMP-14 | M0041-B03: Fab that binds human MMP-14; DNA LV SEQ ID NO: 106, HV SEQ ID NO: 107 (antibody, V domains shown, Synthetically generated oligonucleotide) VL: QDIQMTQSPATLSASVGDRVTISCRASQNISNWLAWYQQKPGKAPKLLIYTASTLHRGVPSRFSGSGSGTDFTLTITSLQPEDFATYYCQQANTFPWTFGQGTKVEIK VH: EVQLLESGGGLVQPGGSLRLSCAASGFTFSMYMMWWVRQAPGKGLEWVSVISSSGGFTSYADSVKGRFTISRDNSKNTLYLQMNSLRAEDTAVYYCARLRYSNFVGGLDVWGQGTTVTVSS
bind to human MMP-14 | M0041-H09: Fab that binds human MMP-14; DNA LV SEQ ID NO: 118, HV SEQ ID NO: 119 (antibody, V domains shown, Synthetically generated oligonucleotide) VL: QDIQMTQSPGTLSLSPGERATLSCRASQSLSGDYLAWYQQKIGQAPRLLIFGASRRPTGIPDRFSGSGSGTDFALTISRLEPEDFAVYYCQQYGSLITFGQGTRLEIK VH: EVQLLESGGGLVQPGGSLRLSCAASGFTFSVYEMTWVRQAPGKGLEWVSGIGSSGGMTFYADSVKGRFTISRDNSKNTLYLQMNSLRAEDTAVYYCARIRYSGSYGWHYMDVWGKGTTVTVSS
bind to human MMP-14 | M0041-E11: Fab that binds human MMP-14; DNA LV SEQ ID NO: 116, HV SEQ ID NO: 117 (protein, Synthetically generated oligonucleotide) chain 1: QDIQMTQSPSSLSAFVGDRVIITCRASQDISVYVNWYQQSSGKAPKLLIYGASSLQSGVPSRFSGSGSGTDFTLTISSLQPEDFASYFCQQSYNLPFTFGGGTNVQIK chain 2: EVQLLESGGGLVQPGGSLRLSCAASGFTFSQYNMQWVRQAPGKGLEWVSGIVPSGGWTPYADSVKGRFTISRDNSKNTLYLQMNSLRAEDTAVYYCARGVRYGLDYWGQGTLVTVSS
bind to human MMP-14 | M0041-H11: Fab that binds human MMP-14; DNA LV SEQ ID NO: 120, HV SEQ ID NO: 121 (antibody, V domains shown, Synthetically generated oligonucleotide) VL: QSELTQDPAVSVALGQTVRITCQGDSLRSYYASWYQQKPGQAPVLVIYGKNNRPSGIPDRFSGSSSGNTASLTITGAQAEDEADYYCNSRDSSGNHVVFGGGTKLTVL VH: EVQLLESGGGLVQPGGSLRLSCAASGFTFSMYPMNWVRQAPGKGLEWVSSISSSGGWTKYADSVKGRFTISRDNSKNTLYLQMNSLRAEDTAVYYCARVFFGYDSSGYPYYYYGMDVWGQGTTVTVSS
bind to human MMP-14 | M0040-H04: Fab that binds human MMP-14; DNA LV SEQ ID NO: 100, HV SEQ ID NO: 101 (antibody, V domains shown, Synthetically generated oligonucleotide) VL: QDIQMTQSPDSLAVSLGERATLNCRSSQSVLYSPNNKNYLAWYQQKAGQPPKLLIYWASFRESGVPERFSGSGSGTDFTLTISSLQAEDVAVYYCQQYHTPPWTFGQGTKVEIK VH: EVQLLESGGGLVQPGGSLRLSCAASGFTFSSYDMVWVRQAPGKGLEWVSSISPSGGNTQYADSVKGRFTISRDNSKNTLYLQMNSLRAEDTAVYYCAKVAAMAPWYFDYWGQGTLVTVSS
